# Assay results from patent US20100286027A1, “ANTI-BACTERIAL COMPOSITIONS” (priority 2008, published 2010).
# B1: Nod2: purified recombinant LRR domain of Nod2 expressed in E. coli; human NOD2-LRR is SEQ ID NO: 3; ~30000 da (protein, listed as Homo sapiens)
# chain: PAAPGEAKSVHAMPGFIWLIRSLYEMQEERLARKAARGLNVGHLKLTFCSVGPTECAALAFVLQHLRRPVALQLDYNSVGDIGVEQLLPCLGVCKALYLRDNNISDRGICKLIECALHCEQLQKLALFNNKLTDGCAHSMAKLLACRQNFLALRLGNNYITAAGAQVLAEGLRGNTSLQFLGFWGNRVGDEGAQALAEALGDHQSLRWLSLVGNNIGSVGAQALALMLAKNVMLEELCLEENHLQDEGVCSLAEGLKKNSSLKILKLSNNCITYLGAEALLQALERNDTILEVWLRGNTFSLEEVDKLGCRDTRLLL
# notes: purified recombinant LRR domain of Nod2 expressed in E. coli; ~30000 da
# Legend:
# [1] = system: lawn of the indicated bacteria; test: Agar diffusion assay; conditions: FIG. 11 Panel D; 0.5 mg/ml in sterile PBS per well
# [2] = system: Bacillus Subtilis (6633); test: BacTiter-Glo bacterial ATP content viability assay; conditions: Bacillus Subtilis (6633), gram +; +/− SD, n = 3; >100 = activity detected but <50% inhibition
# [3] = system: E. coli; test: Aggregation of E. coli in vitro, light microscopy; set-up: species or system Escherichia coli; conditions: 10^6 E. coli in 1 ml PBS, 20 microgram/ml protein, 12 hours
# Method: FIG. 4: Aggregation of E. coli in vitro following incubation with recombinant Nod2 LRR domains. E. coli (10^6) in 1 ml of PBS were incubated with either 20 microgram/ml BSA or purified recombinant Nod2 LRR domains for 12 hours. Aliquots of the cultures were inoculated on a coverslipped slide and analyzed by light microscopy using a 63× objective.
# The Nod2 positive staining of the bacteria in the cytoplasm of cultured cells could either be a direct interaction or result from the colocalization of Nod2 and bacteria in an unidentified vesicular structure. In order to test the hypothesis that the interaction between Nod2 and E. coli was direct, purified recombinant LRR domains from Nod2 were incubated with E. coli (FIG. 4). […] This supports the hypothesis that Nod2 LRR domains can directly interact with E. coli.
# [4] = system: H. influenzae NB65027-CDS0021* (TolC efflux pump mutant); test: MIC against aerobic gram negative bacteria, efflux pump mutant; format: cell-based, Haemophilus influenzae; conditions: aerobic gram negative; H. influenzae NB65027-CDS0021*, TolC efflux pump mutant strain
# [5] = system: Clostridium ramosum NB95010; test: MIC against anaerobic bacteria; format: cell-based
# [6] = system: Propionibacterium acnes NB99001; test: MIC against anaerobic bacteria; format: cell-based
# [7] = system: Stenotrophomonas maltophilia (17666); test: BacTiter-Glo bacterial ATP content viability assay; conditions: gram −, +/− SD, n = 3, >100 = activity detected but <50% inhibition
# [8] = system: Streptococcus pneumoniae (49619); test: BacTiter-Glo bacterial ATP content viability assay; conditions: gram +, +/− SD, n = 3, >100 = activity detected but <50% inhibition
# [9] = system: E. coli; test: Membrane polarity, DiBAC4 uptake by flow cytometry; conditions: FIG. 11 Panel A; 5×10^5 bacteria in 100 μL, 2 hours at 37° C.
# [10] = system: Bacteroides fragilis NB85001; test: MIC against anaerobic bacteria; format: cell-based
# [11] = system: B. subtilis; test: Bacterial growth inhibition (FIG. 14); format: cell-based, Bacillus subtilis; conditions: FIG. 14 Panel A; increasing concentrations, relative to controls (100%)
# Method: (§1) Values shown are relative to controls incubated in the absence of LRR domains (100%).
# [12] = system: S. aureus; test: Bacterial growth inhibition (FIG. 14, FIG. 16); format: cell-based, Staphylococcus aureus
# Method: as §1
# This inhibition was unaffected by the co-administration of MDP, LPS, or PGN.
# [13] = system: P. aeruginosa NB52020* (mexAB/oprM efflux pump mutant); test: MIC against aerobic gram negative bacteria, efflux pump mutant; format: cell-based, Pseudomonas aeruginosa; conditions: aerobic gram negative; P. aeruginosa NB52020*, mexAB/oprM efflux pump mutant strain
# [14] = system: Pseudomonas aeruginosa (27853); test: BacTiter-Glo bacterial ATP content viability assay; conditions: gram −, +/− SD, n = 3, >100 = activity detected but <50% inhibition
# [15] = system: Prevotella intermedia NB88001; test: MIC against anaerobic bacteria; format: cell-based
# [16] = system: Clostridium perfringens NB95001; format: cell-based; conditions: anaerobic
# [17] = system: Peptostreptococcus anaerobius NB97001; test: MIC against anaerobic bacteria; format: cell-based
# [18] = system: porins (OmpC and OmpF); test: LRR domain affinity column and mass spectrometry protein identification; conditions: guanidinium HCl extract of detergent-insoluble E. coli fraction; SDS-PAGE, mass spectrometry
# [19] = system: Enterococcus faecalis (29212); test: BacTiter-Glo bacterial ATP content viability assay; conditions: Enterococcus faecalis (29212), gram +; +/− SD, n = 3; >100 = activity detected but <50% inhibition
# [20] = system: E. coli NB27004; test: MIC against aerobic gram negative bacteria; format: cell-based, Escherichia coli
# [21] = system: L. monocytogenes; test: Bacterial growth inhibition (FIG. 15); format: cell-based, Listeria monocytogenes; conditions: FIG. 15 Panel C
# [22] = system: Klebsiella pneumoniae (700603); test: BacTiter-Glo bacterial ATP content viability assay; conditions: gram −, +/− SD, n = 3, >100 = activity detected but <50% inhibition
# [23] = system: Eubacterium lentum NB94001; test: MIC against anaerobic bacteria; format: cell-based
# [24] = system: Escherichia coli (8739); test: BacTiter-Glo bacterial ATP content viability assay; conditions: gram −, +/− SD, n = 3, >100 = activity detected but <50% inhibition
# [25] = system: Staphylococcus aureus (29213); test: BacTiter-Glo bacterial ATP content viability assay
# [26] = system: H. influenzae NB65027; conditions: aerobic gram negative
# [27] = system: B. subtilis; test: Membrane polarity, DiBAC4 uptake by flow cytometry; conditions: FIG. 11 Panels B and C; 5×10^5 bacteria in 100 μL, 2 hours at 37° C.
# [28] = system: Listeria monocytogenes (7644); test: BacTiter-Glo bacterial ATP content viability assay; conditions: Listeria monocytogenes (7644), gram +; +/− SD, n = 3; >100 = activity detected but <50% inhibition
molecule,measurement,setting,value
B1,anti-bacterial activity by agar diffusion assay,[1],Anti-bacterial activity
same,"antibacterial activity by bacterial ATP content (IC50), [LRR domain]",[2],3.9 +/− 0.6 microgram/ml
same,aggregation of E. coli,[3],aggregated and debris could be observed
same,minimal inhibitory concentration (MIC),[4],4 microgram/ml
same,minimal inhibitory concentration (MIC),[5],4 microgram/ml
same,minimal inhibitory concentration (MIC),[6],4 microgram/ml
same,"antibacterial activity by bacterial ATP content (IC50), [LRR domain]",[7],None detected
same,"antibacterial activity by bacterial ATP content (IC50), [LRR domain]",[8],3.0 +/− 1.6 microgram/ml
same,membrane polarity of E. coli (depolarised bacteria taking up DiBAC4),[9],influence
same,minimal inhibitory concentration (MIC),[10],4 microgram/ml
same,growth of B. Subtilis,[11],inhibits the growth
same,growth of S. aureus,"[12]; FIG. 14 Panel B, increasing concentrations, relative to controls (100%)",inhibits the growth
same,"effect of co-administration of MDP, LPS, or PGN on inhibition of S. aureus growth",[12]; FIG. 16,unaffected
same,growth of S. aureus,[12]; FIG. 16,inhibited the growth
same,minimal inhibitory concentration (MIC),[13],>128 microgram/ml
same,"antibacterial activity by bacterial ATP content (IC50), [LRR domain]",[14],None detected
same,minimal inhibitory concentration (MIC),[15],4 microgram/ml
same,minimal inhibitory concentration (MIC),[16],4 microgram/ml
same,minimal inhibitory concentration (MIC),[17],2 microgram/ml
same,porins (OmpC and OmpF) identified in eluate of LRR affinity column,[18],specifically identified in the eluate
same,"antibacterial activity by bacterial ATP content (IC50), [LRR domain]",[19],6.8 +/− 1.6 microgram/ml
same,minimal inhibitory concentration (MIC),[20],>128 microgram/ml
same,L. monocytogenes growth,[21],inhibited
same,"antibacterial activity by bacterial ATP content (IC50), [LRR domain]",[22],None detected
same,minimal inhibitory concentration (MIC),[23],8 microgram/ml
same,"antibacterial activity by bacterial ATP content (IC50), [LRR domain]",[24],>100 microgram/ml
same,antibacterial activity on S. aureus viability under bacterial stress,"[25]; FIG. 13, ATP-coupled luminescent assay at 35° C., 37° C. and 39° C.",increased with bacterial stress
same,"antibacterial activity by bacterial ATP content (IC50), [LRR domain]","[25]; Staphylococcus aureus (29213), gram +, +/− SD, n = 3, >100 = activity detected but <50% inhibition",6.0 +/− 4.0 microgram/ml
same,minimal inhibitory concentration (MIC),[26],>128 microgram/ml
same,membrane polarity of B. subtilis (depolarised bacteria taking up DiBAC4),[27],influence
same,"antibacterial activity by bacterial ATP content (IC50), [LRR domain]",[28],13.7 +/− 13.0 microgram/ml
